According to article PMC6555819, “Comprehensive study of nuclear receptor DNA binding provides a revised framework for understanding receptor specificity”:
Where a chain is given by its changes, count along the chain named.

B1: NRC3_wobSeed53_DR2_A22G_o1 (dsDNA)
DNA 1: GCCCTTACGGGTCACGAGGTTGTAGCACGACGAGCGGCGATTGACAGCGTAGAATGAAGG
DNA 2: CCTTCATTCTACGCTGTCAATCGCCGCTCGTCGTGCTACAACCTCGTGACCCGTAAGGGC
B2: NRC3_wobSeed42_DR1_G9A_o1 (dsDNA)
DNA 1: GCTATACAAGGTCAAAGGCCAGAGTACGAATGTCGAGCGATTGACAGCGTAGAATGAAGG
DNA 2: CCTTCATTCTACGCTGTCAATCGCTCGACATTCGTACTCTGGCCTTTGACCTTGTATAGC
B3: NRC3_wobSeed124_DR5_T26A_o1 (dsDNA)
DNA 1: GCCCTACTGGGCCATTCAGAGGTCAATGATCATATGGCGATTGACAGCGTAGAATGAAGG
DNA 2: CCTTCATTCTACGCTGTCAATCGCCATATGATCATTGACCTCTGAATGGCCCAGTAGGGC
B4: NRC3_wobSeed93_DR3_G25A_o1 (dsDNA)
DNA 1: GCAGTCAAAGTTCATCTAGGTAACATAAGATATGCTGCGATTGACAGCGTAGAATGAAGG
DNA 2: CCTTCATTCTACGCTGTCAATCGCAGCATATCTTATGTTACCTAGATGAACTTTGACTGC
B5: NRC3_wobSeed100_DR4_G16T_o1 (dsDNA)
DNA 1: GCCCTACTGGGCCACTAAAGGTCATTGATTCAGTGAGCGATTGACAGCGTAGAATGAAGG
DNA 2: CCTTCATTCTACGCTGTCAATCGCTCACTGAATCAATGACCTTTAGTGGCCCAGTAGGGC
B6: NRC3_wobSeed100_DR4_T8G_o1 (dsDNA)
DNA 1: B5 DNA 1 with T8G, T16G
DNA 2: B5 DNA 2 with A45C, A53C
B7: NRC3_wobSeed37_DR1_G10A_o1 (dsDNA)
DNA 1: GCCGTCCAAAGTCAAAGGTCAGTGAAGAGATGACGGGCGATTGACAGCGTAGAATGAAGG
DNA 2: CCTTCATTCTACGCTGTCAATCGCCCGTCATCTCTTCACTGACCTTTGACTTTGGACGGC
B8: NRC3_wobSeed18_DR0_A4T_o1 (dsDNA)
DNA 1: GCGTTACAGGGTCAAGGCCAGAGTACGCGTATTGATGCGATTGACAGCGTAGAATGAAGG
DNA 2: CCTTCATTCTACGCTGTCAATCGCATCAATACGCGTACTCTGGCCTTGACCCTGTAACGC
B9: NRC3_wobSeed117_DR4_A18G_o1 (dsDNA)
DNA 1: GCCGTCAAAGTTCAACTGAGGTAACGTAAAGCACGCGCGATTGACAGCGTAGAATGAAGG
DNA 2: CCTTCATTCTACGCTGTCAATCGCGCGTGCTTTACGTTACCTCAGTTGAACTTTGACGGC
B10: NRC3_wobSeed136_DR5_G5C_o1 (dsDNA)
DNA 1: GCTACCCTAGGTCATTCAGGGGCCAGTATAGAAAGCGCGATTGACAGCGTAGAATGAAGG
DNA 2: CCTTCATTCTACGCTGTCAATCGCGCTTTCTATACTGGCCCCTGAATGACCTAGGGTAGC
B11: NRC3_wobSeed136_DR5_T27C_o1 (dsDNA)
DNA 1: B10 DNA 1 with C5G, T27C
DNA 2: B10 DNA 2 with A34G, G56C
B12: NRC3_wobSeed136_DR5_G26C_o1 (dsDNA)
DNA 1: B10 DNA 1 with C5G, G26C
DNA 2: B10 DNA 2 with C35G, G56C
B13: NRC3_wobSeed2_DR0_T5G_o1 (dsDNA)
DNA 1: GCCCGAGTTGGTCAAGGTCACACACGCTATAGGTACGCGATTGACAGCGTAGAATGAAGG
DNA 2: CCTTCATTCTACGCTGTCAATCGCGTACCTATAGCGTGTGTGACCTTGACCAACTCGGGC
B14: NRC3_wobSeed40_DR1_G5C_o1 (dsDNA)
DNA 1: GCTACCCTAGGTCATGGGCCAGTATACCACGCGAACGCGATTGACAGCGTAGAATGAAGG
DNA 2: CCTTCATTCTACGCTGTCAATCGCGTTCGCGTGGTATACTGGCCCATGACCTAGGGTAGC
B15: NRC3_wobSeed137_DR5_T27C_o1 (dsDNA)
DNA 1: GCATATGTAGGTTACATCCGGGTCATCCAGGCTATGGCGATTGACAGCGTAGAATGAAGG
DNA 2: CCTTCATTCTACGCTGTCAATCGCCATAGCCTGGATGACCCGGATGTAACCTACATATGC
B16: NRC3_wobSeed113_DR4_G19A_o1 (dsDNA)
DNA 1: GCATATGTAGGTTAGCTGAGGTCATTCAGACTAGGCGCGATTGACAGCGTAGAATGAAGG
DNA 2: CCTTCATTCTACGCTGTCAATCGCGCCTAGTCTGAATGACCTCAGCTAACCTACATATGC
B17: NRC3_wobSeed101_DR4_G27T_o1 (dsDNA)
DNA 1: GCCCTTACGGGTCACTCCAGGTTATATCATCGGAGTGCGATTGACAGCGTAGAATGAAGG
DNA 2: CCTTCATTCTACGCTGTCAATCGCACTCCGATGATATAACCTGGAGTGACCCGTAAGGGC
B18: NRC3_wobSeed27_DR1_G10T_o1 (dsDNA)
DNA 1: GCACTCGGATGACAAAGGTCAGAGCTACGCCAGTGAGCGATTGACAGCGTAGAATGAAGG
DNA 2: CCTTCATTCTACGCTGTCAATCGCTCACTGGCGTAGCTCTGACCTTTGTCATCCGAGTGC
B19: NRC3_wobSeed27_DR1_A23G_o1 (dsDNA)
DNA 1: B18 DNA 1 with T10G, A23G
DNA 2: B18 DNA 2 with T38C, A51C
B20: NRC3_wobSeed64_DR2_G5C_o1 (dsDNA)
DNA 1: GCTACCCTAGGTCATTGGGCCAGTATAGTACGCATCGCGATTGACAGCGTAGAATGAAGG
DNA 2: CCTTCATTCTACGCTGTCAATCGCGATGCGTACTATACTGGCCCAATGACCTAGGGTAGC
B21: NRC3_wobSeed76_DR3_o1 (dsDNA)
DNA 1: GCCCTACTGGGCCAAAAAGGTCATTGATGCCGATAAGCGATTGACAGCGTAGAATGAAGG
DNA 2: CCTTCATTCTACGCTGTCAATCGCTTATCGGCATCAATGACCTTTTTGGCCCAGTAGGGC
B22: NRC3_wobSeed73_DR3_A5C_o1 (dsDNA)
DNA 1: GCCACACTAGGTCACAGAGGTCAAAGTCCGTGCGTAGCGATTGACAGCGTAGAATGAAGG
DNA 2: CCTTCATTCTACGCTGTCAATCGCTACGCACGGACTTTGACCTCTGTGACCTAGTGTGGC
B23: NRC3_wobSeed123_DR5_G26T_o1 (dsDNA)
DNA 1: GCCCTCGGAGGACAACAGGAGGTCATAGCTGCCAGAGCGATTGACAGCGTAGAATGAAGG
DNA 2: CCTTCATTCTACGCTGTCAATCGCTCTGGCAGCTATGACCTCCTGTTGTCCTCCGAGGGC
B24: NRC3_wobSeed58_DR2_G21A_o1 (dsDNA)
DNA 1: GCATCGAAAGGTCGTGAGGTAAGTATACAGAAAGGCGCGATTGACAGCGTAGAATGAAGG
DNA 2: CCTTCATTCTACGCTGTCAATCGCGCCTTTCTGTATACTTACCTCACGACCTTTCGATGC
B25: NRC3_wobSeed45_DR1_G4A_o1 (dsDNA)
DNA 1: GCTATCAAAGTTCAAAGGTAACGTAAGTATCCACACGCGATTGACAGCGTAGAATGAAGG
DNA 2: CCTTCATTCTACGCTGTCAATCGCGTGTGGATACTTACGTTACCTTTGAACTTTGATAGC
B26: NRC3_wobSeed104_DR4_A11G_o1 (dsDNA)
DNA 1: GCTCTTGTAGGTCAATAGAGGTTAAGAAAGTGCGCTGCGATTGACAGCGTAGAATGAAGG
DNA 2: CCTTCATTCTACGCTGTCAATCGCAGCGCACTTTCTTAACCTCTATTGACCTACAAGAGC
B27: NRC3_wobSeed116_DR4_A9G_o1 (dsDNA)
DNA 1: GCAGAATGGGGTTACCAAAGATCAGGGAAACGCTTGGCGATTGACAGCGTAGAATGAAGG
DNA 2: CCTTCATTCTACGCTGTCAATCGCCAAGCGTTTCCCTGATCTTTGGTAACCCCATTCTGC
B28: NRC3_wobSeed125_DR5_A30G_o1 (dsDNA)
DNA 1: GCCCTTACGGGTCACTGACAGGTTATAGCGTTTGGAGCGATTGACAGCGTAGAATGAAGG
DNA 2: CCTTCATTCTACGCTGTCAATCGCTCCAAACGCTATAACCTGTCAGTGACCCGTAAGGGC
B29: NRC3_wobSeed61_DR2_A17G_o1 (dsDNA)
DNA 1: GCCGTCCAAGGTCAGCGGGTCAGTGAAAGCGACGTGGCGATTGACAGCGTAGAATGAAGG
DNA 2: CCTTCATTCTACGCTGTCAATCGCCACGTCGCTTTCACTGACCCGCTGACCTTGGACGGC
B30: NRC3_wobSeed49_DR2_G11T_o1 (dsDNA)
DNA 1: GCCAAACTAGTTCAAGAGGTCAAAGTCCGCTTCCCGGCGATTGACAGCGTAGAATGAAGG
DNA 2: CCTTCATTCTACGCTGTCAATCGCCGGGAAGCGGACTTTGACCTCTTGAACTAGTTTGGC
B31: NRC3_wobSeed114_DR4_G9A_o1 (dsDNA)
DNA 1: GCAATACAAGGTCATCGTAGGCCAGAGTACGCACAGGCGATTGACAGCGTAGAATGAAGG
DNA 2: CCTTCATTCTACGCTGTCAATCGCCTGTGCGTACTCTGGCCTACGATGACCTTGTATTGC
B32: NRC3_wobSeed133_DR5_G22A_o1 (dsDNA)
DNA 1: GCCGTCCAAGGTCAATGCTAGATCAGTGAAAGCATTGCGATTGACAGCGTAGAATGAAGG
DNA 2: CCTTCATTCTACGCTGTCAATCGCAATGCTTTCACTGATCTAGCATTGACCTTGGACGGC
B33: NRC3_wobSeed105_DR4_A13T_o1 (dsDNA)
DNA 1: GCATCTCTAGGTTAAGATAGTTCAGTGAATGCAAATGCGATTGACAGCGTAGAATGAAGG
DNA 2: CCTTCATTCTACGCTGTCAATCGCATTTGCATTCACTGAACTATCTTAACCTAGAGATGC

What follows are binders tested against LXRa:RXRa (Homo sapiens, UniProt Q13133;P19793 full;full) (assay: no ligand; PBM; 270 nM : 90 nM RXRa; PBS pH 7.4, 2% milk, 0.02% Triton X-100, 1 mM DTT, BSA, 0.4 mg/ml salmon testes DNA). Details: tags: His kept;His cleaved; copies: 1;1; label: surface-attached array probe.
Outline: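 Custom Agilent 4×180K protein-binding microarrays carried double-stranded probes, each with a 34-nt variable region. These regions held direct-repeat seeds, single-nucleotide variants, half-site ablations and random human genomic background sequences. Ligand-free nuclear receptor dimers were incubated on the arrays for 1 h, antibodies against each partner (one per run) detected binding, and scanned fluorescence was regression-normalized. Binding z-scores take the random background probes as reference.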

LXRa:RXRa, sequence (Q13133 whole entry, chain 1 of 2): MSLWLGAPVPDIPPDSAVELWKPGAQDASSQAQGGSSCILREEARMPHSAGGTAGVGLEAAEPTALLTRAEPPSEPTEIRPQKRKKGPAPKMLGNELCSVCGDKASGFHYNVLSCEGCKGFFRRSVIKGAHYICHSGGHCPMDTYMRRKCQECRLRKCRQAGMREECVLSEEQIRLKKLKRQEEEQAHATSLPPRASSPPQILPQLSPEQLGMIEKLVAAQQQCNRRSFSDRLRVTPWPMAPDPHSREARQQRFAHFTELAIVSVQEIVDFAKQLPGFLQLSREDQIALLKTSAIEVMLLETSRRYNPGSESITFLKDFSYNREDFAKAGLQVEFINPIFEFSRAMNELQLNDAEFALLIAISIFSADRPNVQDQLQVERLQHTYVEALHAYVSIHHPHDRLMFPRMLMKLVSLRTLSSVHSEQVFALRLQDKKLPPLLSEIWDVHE
LXRa:RXRa, sequence (P19793 whole entry, chain 2 of 2): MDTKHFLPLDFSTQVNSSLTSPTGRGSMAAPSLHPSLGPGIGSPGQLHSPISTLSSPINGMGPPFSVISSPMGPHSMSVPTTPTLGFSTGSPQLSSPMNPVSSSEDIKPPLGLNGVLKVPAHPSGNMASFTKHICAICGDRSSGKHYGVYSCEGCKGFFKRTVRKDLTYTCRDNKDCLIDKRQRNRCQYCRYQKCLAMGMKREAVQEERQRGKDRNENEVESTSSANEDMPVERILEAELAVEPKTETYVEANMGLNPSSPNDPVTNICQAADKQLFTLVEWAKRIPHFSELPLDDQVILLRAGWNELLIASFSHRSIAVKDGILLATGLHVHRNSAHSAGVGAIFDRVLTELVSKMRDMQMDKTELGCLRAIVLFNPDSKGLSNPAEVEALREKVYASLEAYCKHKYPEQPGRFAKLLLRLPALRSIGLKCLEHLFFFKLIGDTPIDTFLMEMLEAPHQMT

Row | Binder | binding signal
1 | B1 | 4.14 PBM z-score against 500 random probes
2 | B2 | 7.02 PBM z-score against 500 random probes
3 | B3 | 3.77 PBM z-score against 500 random probes
4 | B4 | 6.61 PBM z-score against 500 random probes
5 | B5 | 7.03 PBM z-score against 500 random probes
6 | B6 | 6.67 PBM z-score against 500 random probes
7 | B7 | 3.96 PBM z-score against 500 random probes
8 | B8 | 4.02 PBM z-score against 500 random probes
9 | B9 | 6.87 PBM z-score against 500 random probes
10 | B10 | 6.72 PBM z-score against 500 random probes
11 | B11 | 3.99 PBM z-score against 500 random probes
12 | B12 | 4.28 PBM z-score against 500 random probes
13 | B13 | 3.9 PBM z-score against 500 random probes
14 | B14 | 6.6 PBM z-score against 500 random probes
15 | B15 | 4.22 PBM z-score against 500 random probes
16 | B16 | 6.64 PBM z-score against 500 random probes
17 | B17 | 8.05 PBM z-score against 500 random probes

Row | Binder | binding signal
18 | B18 | 4.09 PBM z-score against 500 random probes
19 | B19 | 4.04 PBM z-score against 500 random probes
20 | B20 | 6.89 PBM z-score against 500 random probes
21 | B21 | 4.25 PBM z-score against 500 random probes
22 | B22 | 7.06 PBM z-score against 500 random probes
23 | B23 | 3.93 PBM z-score against 500 random probes
24 | B24 | 4.07 PBM z-score against 500 random probes
25 | B25 | 7.29 PBM z-score against 500 random probes
26 | B26 | 7.01 PBM z-score against 500 random probes
27 | B27 | 7.02 PBM z-score against 500 random probes
28 | B28 | 4.16 PBM z-score against 500 random probes
29 | B29 | 3.86 PBM z-score against 500 random probes
30 | B30 | 6.74 PBM z-score against 500 random probes
31 | B31 | 7.16 PBM z-score against 500 random probes
32 | B32 | 4.19 PBM z-score against 500 random probes
33 | B33 | 6.81 PBM z-score against 500 random probes
